From US7871610B2, “Antibodies to Tie1 ectodomain” (Dyax Corp., priority 2003, dated 2011)

How the values were obtained:
Tie1 = Tie1 (Homo sapiens, UniProt P35590); experiment: Immunofluorescence staining of Tie1-transfected COS1 cells; format: binding; settings: COS1 cells transfected with pcDNA3-Tie1-V5; antibodies 5 μg/ml
Protocol: COS1 cells on the glass coverslips were transiently transfected with pcDNA3-Tie1-V5 (the V5-epitope was added to the 3′ terminus of pcDNA3-Tie1) (1 μg DNA per 10 cm cell culture plate) using FUGENE™ 6 (Roche) according to manufacturer's instruction and incubated for 48 h before staining. Cells were fixed in 4% paraformaldehyde for 10 min at 4° C. If required, the cells were permeabilized with 0.2% Triton X-100 in PBS for 5 min. Unspecific binding sites were blocked by incubation with 1% BSA in PBS for 30 min. The cells were then stained with anti-Tie1 antibodies (5 μg/ml) and anti-V5 antibodies for 1 h at room temperature, followed by incubation with FITC— conjugated anti-human antibodies (DAKO, 40 μg/ml) and TRITC-conjugated anti-mouse antibodies (DAKO, 15 μg/ml) for 30 min. Hoechst 33258 fluorochrome (Sigma, 0.5 μg/ml) was used for the staining of the nuclei.

[1] = target: T1, Tie1-EpoR chimeric receptor (UniProt P14753+P35590); experiment: Ba/F3 bioassay (Tie1/EpoR chimeric BaF3 cell assay), MTT viability; format: cell-based, human; settings: 100 ng/ml E3 IgG together with 100 (1:1) or 500 (1:5) ng/ml of the other antibody
T1 construct: the PCR amplified extracellular part of human Tie1 (bp 37-2316 of X60975); expressed in transfected cells
T1 sequence (P35590+P14753 with tags, fused parts or gaps): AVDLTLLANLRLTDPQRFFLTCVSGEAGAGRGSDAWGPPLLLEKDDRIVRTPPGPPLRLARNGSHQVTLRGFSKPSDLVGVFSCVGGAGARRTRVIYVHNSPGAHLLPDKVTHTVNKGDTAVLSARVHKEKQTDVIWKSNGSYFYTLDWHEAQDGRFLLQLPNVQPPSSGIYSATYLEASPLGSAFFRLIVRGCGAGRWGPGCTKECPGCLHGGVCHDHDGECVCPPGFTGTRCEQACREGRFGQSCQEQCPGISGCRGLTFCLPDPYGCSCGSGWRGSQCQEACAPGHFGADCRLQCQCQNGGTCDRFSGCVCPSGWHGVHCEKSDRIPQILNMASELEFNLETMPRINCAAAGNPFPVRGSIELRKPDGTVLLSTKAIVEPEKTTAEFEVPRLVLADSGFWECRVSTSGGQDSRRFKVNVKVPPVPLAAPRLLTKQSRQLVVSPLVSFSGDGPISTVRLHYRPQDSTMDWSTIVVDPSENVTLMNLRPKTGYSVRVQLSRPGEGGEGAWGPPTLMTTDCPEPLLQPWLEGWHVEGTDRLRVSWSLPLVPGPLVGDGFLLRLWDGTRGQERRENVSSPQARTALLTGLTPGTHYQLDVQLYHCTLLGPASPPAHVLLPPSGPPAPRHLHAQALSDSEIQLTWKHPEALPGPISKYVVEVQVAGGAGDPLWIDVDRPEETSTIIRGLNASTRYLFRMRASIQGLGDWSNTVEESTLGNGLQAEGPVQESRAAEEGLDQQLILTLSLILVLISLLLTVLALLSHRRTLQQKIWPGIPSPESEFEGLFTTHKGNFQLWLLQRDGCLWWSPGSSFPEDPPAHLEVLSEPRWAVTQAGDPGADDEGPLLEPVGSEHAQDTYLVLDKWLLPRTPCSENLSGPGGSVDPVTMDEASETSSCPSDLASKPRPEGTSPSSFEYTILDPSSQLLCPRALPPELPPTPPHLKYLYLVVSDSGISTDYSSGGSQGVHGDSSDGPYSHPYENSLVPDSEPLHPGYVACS
Text: To generate Tie1-EpoR expressing Ba/F3 cells for the bioassay, Ba/F3 pre-B cells were stably transfected with a nucleic acid that expresses chimeric receptor containing the extracellular domain of human Tie1 fused with the transmembrane and cytoplasmic domains of the mouse erythropoietin receptor. The nucleic acid used was a Tie1-EpoR chimeric cDNA in a pEF-BOS expression vector. The nucleic acid encoding the chimeric receptor was constructed by cloning the PCR amplified extracellular part of human Tie1 (bp 37-2316 of X60975) as EcoRI-BglII fragment into mEpoR-pcDNA vector. The cDNA encoding for the chimeric receptor consisting of the extracellular part of Tie1 fused with the transmembrane and intracellular domains of EpoR was subcloned into the pEF-BOS expression vector. Vector was linearized and co-transfected into Ba/F3 cells with pcDNA3.1(+) Zeo vector (Invitrogen). Stable cell pools were generated by selection with 250 μg/ml Zeocin. The expression of Tie1/EpoR fusion protein in several clones was analyzed by Western blotting with an antibody against EpoR.
To perform the assays, Ba/F3 cells expressing the Tie 1-EpoR chimera were split in 96-well microtiter plates at 50 000 cells/well in the presence of the indicated concentrations of anti-Tie1 antibodies. As controls, Zeocin resistant pools not expressing the Tie1-EpoR were used. After 48 h, the viability of the cells was determined by adding MTT (3-(4,5-dimethylthiazol-2-yl)-2,5-diphenyl tetrazolium bromide (Sigma), 0.5 mg/ml), followed by further 2 h of culture, addition of an equal volume of cell lysis solution (10% SDS, 10 mM HCl) and incubation overnight at 37° C. Absorbance was measured at 540 nm.
Although no ligand for Tie1 has been identified, we used the following efficient screening method for Tie1-binding proteins. Interleukin-3 dependent pre-B-lymphocyte (Ba/F3) cells were transfected with a construct that expresses a Tie1-EpoR fusion protein. Since Ba/F3 cells are IL-3 dependent, they die unless IL-3 is provided. However, Tie-EpoR receptor expressing Ba/F3 cells can survive and proliferate if the medium contains a Tie1-binding protein, either a natural ligand or an artificial mimetic. Cell survival can be quantitated, e.g., by colorimetric MTT-assay, which measures mitochondrial activity.

Chain of Tie1 (P35590 22-1138): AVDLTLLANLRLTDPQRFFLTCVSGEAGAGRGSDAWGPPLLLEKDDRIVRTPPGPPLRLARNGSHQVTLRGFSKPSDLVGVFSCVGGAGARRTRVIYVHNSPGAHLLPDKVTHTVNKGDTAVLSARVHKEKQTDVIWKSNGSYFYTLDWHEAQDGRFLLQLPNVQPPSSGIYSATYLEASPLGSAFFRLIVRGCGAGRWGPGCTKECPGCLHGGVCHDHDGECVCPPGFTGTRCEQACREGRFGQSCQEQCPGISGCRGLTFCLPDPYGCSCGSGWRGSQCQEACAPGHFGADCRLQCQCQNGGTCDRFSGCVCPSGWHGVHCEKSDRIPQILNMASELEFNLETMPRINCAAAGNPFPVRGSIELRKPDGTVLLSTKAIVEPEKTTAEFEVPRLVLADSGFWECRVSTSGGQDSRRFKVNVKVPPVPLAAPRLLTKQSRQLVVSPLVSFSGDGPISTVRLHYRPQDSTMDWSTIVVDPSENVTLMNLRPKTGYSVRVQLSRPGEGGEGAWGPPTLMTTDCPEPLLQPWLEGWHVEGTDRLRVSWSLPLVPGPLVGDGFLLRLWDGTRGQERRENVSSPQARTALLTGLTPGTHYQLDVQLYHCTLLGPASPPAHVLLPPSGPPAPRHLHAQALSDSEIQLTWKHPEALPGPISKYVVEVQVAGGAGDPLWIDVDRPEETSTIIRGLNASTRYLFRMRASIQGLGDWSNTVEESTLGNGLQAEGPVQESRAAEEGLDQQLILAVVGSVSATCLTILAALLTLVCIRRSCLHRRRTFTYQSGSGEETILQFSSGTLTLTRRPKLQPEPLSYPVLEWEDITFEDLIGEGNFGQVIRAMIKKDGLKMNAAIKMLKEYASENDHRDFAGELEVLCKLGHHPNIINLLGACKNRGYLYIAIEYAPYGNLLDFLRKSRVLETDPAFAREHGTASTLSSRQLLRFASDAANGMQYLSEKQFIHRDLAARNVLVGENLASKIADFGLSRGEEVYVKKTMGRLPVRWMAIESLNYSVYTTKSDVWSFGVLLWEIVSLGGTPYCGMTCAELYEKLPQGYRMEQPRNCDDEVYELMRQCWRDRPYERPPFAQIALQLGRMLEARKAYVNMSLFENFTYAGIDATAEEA

IF: Tie1-transfected (Tie1): weak
B1: P-B1: anti-Tie1 antibody; VH SEQ ID NO:20, VL SEQ ID NO:22 (antibody, V domains shown)
VH: EVQLLESGGGLVQPGGSLRLSCAASGFTFSRYPMVWVRQAPGKGLEWVSVISPSGGQTFYADSVKGRFTISRDNSKNTLYLQMNSLRAEDTAVYYCARGVLTTAFDIWGQGTMVTVSSASTKGPSVFPLAPSSKAPLGAQRPWAAWSR
VL: QDIQMTQSPSSLSASVGDRVTITCRASQNINSYLNWYQQKPGQAPKLLIYAASNLETAVPSRFSGSGSGTDFTLTISSLQPEDFATYYCQQFNTYPLTFGGG
modifications: Synthetically generated peptide
effect on the survival effect of E3 IgG in Tie1-EpoR Ba/F3 assay [1]: inhibited the viability effect of E3 IgG to some extent
